{"source": "patent US20140322196A1", "about": "(priority 2011, published 2014)", "tested_on": "A/Parma/24/09 (Brisbane-like) (oseltamivir-resistant) H1N1", "type": "cell-based, Influenza A virus", "conditions": "A/Parma/24/09 H1N1"}
{"molecule": "bLf: Lactoferrin from bovine milk, purchased from Morinaga Milk Industries, deprived of endotoxin (protein, UniProt P24627 20-708, looked up) Lactotransferrin: APRKNVRWCTISQPEWFKCRRWQWRMKKLGAPSITCVRRAFALECIRAIAEKKADAVTLDGGMVFEAGRDPYKLRPVAAEIYGTKESPQTHYYAVAVVKKGSNFQLDQLQGRKSCHTGLGRSAGWIIPMGILRPYLSWTESLEPLQGAVAKFFSASCVPCIDRQAYPNLCQLCKGEGENQCACSSREPYFGYSGAFKCLQDGAGDVAFVKETTVFENLPEKADRDQYELLCLNNSRAPVDAFKECHLAQVPSHAVVARSVDGKEDLIWKLLSKAQEKFGKNKSRSFQLFGSPPGQRDLLFKDSALGFLRIPSKVDSALYLGSRYLTTLKNLRETAEEVKARYTRVVWCAVGPEEQKKCQQWSQQSGQNVTCATASTTDDCIVLVLKGEADALNLDGGYIYTAGKCGLVPVLAENRKSSKHSSLDCVLRPTEGYLAVAVVKKANEGLTWNSLKDKKSCHTAVDRTAGWNIPMGLIVNQTGSCAFDEFFSQSCAPGADPKSRLCALCAGDDQGLDKCVPNSKEKYYGYTGAFRCLAEDVGDVAFVKNDTVWENTNGESTADWAKNLNREDFRLLCLDGTRKPVTEAQSCHLAVAPNHAVVSRSDRAAHVKQVLLHQQALFGKNGKNCPDKFCLFKSETKNLLFNDNTECLAKLGGRPTYEEYLGTEYVTAIANLKKCSTSPLLEACAFLTR", "values": [{"measurement": "HI titre", "result": 6, "unit": "nM"}]}
